Measurements: patent US8883973B2

Target: human FcRn (complex of His-tagged FcRn alpha chain with beta 2 microglobulin) (human) (UniProt P55899)
Experiment: SPR (Biacore), human FcRn on chip, pH 6.0

fold FcRn binding (fold of Ka* relative to WT IgG1) [fold] | fold FcRn binding (fold of Ka* relative to WT) [fold] | Substance
3.4 | – | 257L IgG1 anti-VEGF antibody
3.5 | – | 257N IgG1 anti-VEGF antibody
– | 17.3 | 428L/434S IgG1 anti-VEGF antibody
– | 3.8 | 434S IgG1 anti-VEGF antibody
